Patent US8394770B2 (priority 2007, dated 2013)
Read-outs that look alike come from different tables or passages of the source. Positions of bridges follow the written chain, without caps; N, C: chain ends. No end group written: not given here.

How the values were obtained:
DP-BB/W rats = settings: repeated daily administration, assayed at 110 days of age, vs vehicle; cited from earlier work
rat brain synaptosomes = settings: binding to rat brain synaptosomes; cited from earlier work
[1] = electrophysiological experiments; cited from earlier work
mKv1.1 = mKv1.1 (Mus musculus, UniProt P16388); assay: Patch-clamp block of mKv1.1 channels stably expressed in L929 cells; settings: 10 nM
Chain of mKv1.1 (P16388 whole entry): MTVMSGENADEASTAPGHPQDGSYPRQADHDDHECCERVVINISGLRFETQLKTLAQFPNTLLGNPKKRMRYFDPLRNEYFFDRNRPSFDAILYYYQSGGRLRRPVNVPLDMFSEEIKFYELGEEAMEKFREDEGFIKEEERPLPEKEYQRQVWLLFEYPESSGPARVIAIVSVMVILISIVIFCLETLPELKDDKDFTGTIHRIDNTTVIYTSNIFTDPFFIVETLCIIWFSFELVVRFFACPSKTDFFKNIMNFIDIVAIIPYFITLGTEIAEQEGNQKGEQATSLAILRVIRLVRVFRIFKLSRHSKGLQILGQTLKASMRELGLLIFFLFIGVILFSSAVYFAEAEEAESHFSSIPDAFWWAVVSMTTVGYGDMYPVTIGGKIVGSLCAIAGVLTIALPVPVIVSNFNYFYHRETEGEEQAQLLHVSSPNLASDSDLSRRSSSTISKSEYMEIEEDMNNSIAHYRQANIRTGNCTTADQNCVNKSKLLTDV

hIKCa1 = hIKCa1 (Homo sapiens, UniProt O15554); assay: Patch-clamp block of recombinant hIKCa1 channels expressed in Cos-7 cells (voltage ramps); settings: 10 nM
Chain of hIKCa1 (O15554 whole entry): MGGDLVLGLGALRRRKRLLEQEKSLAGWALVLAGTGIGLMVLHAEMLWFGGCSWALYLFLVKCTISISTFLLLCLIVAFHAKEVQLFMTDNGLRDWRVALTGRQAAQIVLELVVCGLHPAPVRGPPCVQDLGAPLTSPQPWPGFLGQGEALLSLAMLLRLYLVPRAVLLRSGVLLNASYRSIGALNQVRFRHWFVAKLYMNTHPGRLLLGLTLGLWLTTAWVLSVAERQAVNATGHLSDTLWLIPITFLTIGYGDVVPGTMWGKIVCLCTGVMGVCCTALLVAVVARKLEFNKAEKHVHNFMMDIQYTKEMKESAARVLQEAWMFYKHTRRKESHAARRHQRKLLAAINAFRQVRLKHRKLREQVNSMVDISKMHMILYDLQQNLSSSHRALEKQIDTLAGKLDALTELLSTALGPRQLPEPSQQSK
Experimental: The current carried by IKCa1 channels can be measured using a pipette filling solution having 1 μM free Ca^2+ concentration, which is sufficient to fully activate these channels [Grissmer et al., 1993].
Cos-7 cells were maintained in standard cell culturing conditions [Bagdany at al, 2005]. […] The normal extracellular solution is the same as described above. […] This solution contained 1 μM free Ca^2+ concentration to fully activate the hIKCa1 current. All other recording conditions (data acquisition, perfusion etc.) were identical to the description above for Kv1.3 channels.
Two hundred millisecond-long voltage ramps from −120 mV to +50 mV from a holding potential of −120 mV were used to elicit hIKCa1 currents in Cos-7 cells (ramp speed 0.85 mV/ms). Voltage ramps were run every 10 s. […] The reversal potential of the current is −75 mV, which is characteristic to a K^+ conductance based on the ionic composition of the recording solutions. For IKCa1 currents the slope (s) of the linear current-voltage relationship can be used to characterize the current block [Grissmer et al., 1993]. […] Error bars indicate SEM for n=3 independent experiments.

hKv1.2 [2] = biological target: T1, hKv1.2 (Homo sapiens, UniProt P16389); assay: Patch-clamp block of hKv1.2 channels expressed in Cos-7 cells
T1 sequence (P16389 whole entry): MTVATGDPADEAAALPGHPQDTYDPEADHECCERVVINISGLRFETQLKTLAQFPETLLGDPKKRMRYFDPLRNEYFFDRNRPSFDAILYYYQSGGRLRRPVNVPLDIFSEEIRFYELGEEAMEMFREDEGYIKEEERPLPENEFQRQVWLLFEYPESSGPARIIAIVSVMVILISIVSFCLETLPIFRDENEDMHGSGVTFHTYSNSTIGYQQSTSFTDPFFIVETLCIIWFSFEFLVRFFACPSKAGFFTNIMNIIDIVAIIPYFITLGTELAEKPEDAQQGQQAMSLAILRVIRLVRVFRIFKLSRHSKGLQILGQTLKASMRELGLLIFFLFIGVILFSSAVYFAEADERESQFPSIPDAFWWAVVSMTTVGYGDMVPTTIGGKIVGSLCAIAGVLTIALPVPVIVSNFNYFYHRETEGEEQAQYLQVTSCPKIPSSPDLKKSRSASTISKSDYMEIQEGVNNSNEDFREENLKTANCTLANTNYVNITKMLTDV

mice = assay: In vivo toxicity / lethality test by injection into mice; settings: injected, up to 10,000 microgram per 20 gram mouse weight (so in the source)
hKv1.3 channels [3] = biological target: T2, hKv1.3 channels (Homo sapiens, UniProt P22001); assay: Whole-cell patch-clamp block of hKv1.3 channels endogenously expressed in human peripheral blood T cells; format: cell-based; set-up: channels expressed endogenously in human peripheral blood T cells; endogenous in cells; host or cells: human peripheral blood T lymphocytes from healthy volunteers, PHA-stimulated
T2 sequence (P22001 whole entry): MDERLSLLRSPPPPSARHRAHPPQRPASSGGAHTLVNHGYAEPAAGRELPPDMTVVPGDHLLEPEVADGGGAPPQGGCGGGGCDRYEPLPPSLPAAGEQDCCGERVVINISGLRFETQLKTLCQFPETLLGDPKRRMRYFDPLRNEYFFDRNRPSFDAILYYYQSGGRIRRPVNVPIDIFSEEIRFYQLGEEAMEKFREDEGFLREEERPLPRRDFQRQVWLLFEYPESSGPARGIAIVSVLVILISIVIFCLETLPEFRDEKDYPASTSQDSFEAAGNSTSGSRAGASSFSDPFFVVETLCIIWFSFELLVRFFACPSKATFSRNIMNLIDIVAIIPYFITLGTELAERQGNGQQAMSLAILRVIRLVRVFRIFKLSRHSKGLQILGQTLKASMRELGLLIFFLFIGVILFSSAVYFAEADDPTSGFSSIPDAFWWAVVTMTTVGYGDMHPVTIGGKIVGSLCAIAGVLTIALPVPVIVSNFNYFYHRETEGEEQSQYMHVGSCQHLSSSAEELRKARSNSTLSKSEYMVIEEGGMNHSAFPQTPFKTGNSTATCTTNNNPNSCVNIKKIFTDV

hKv1.3 channel [4] = biological target: T3, hKv1.3 channel (human, UniProt P22001)
[5] = biological target: hIKCa1 channel (EGFP-tagged) (human) (UniProt O15554); assay: ratio of Kd values from patch clamp, reference hKv1.3
Chain of hIKCa1 channel (EGFP-tagged) (human) (O15554 whole entry): as the sequence (O15554 whole entry) above

hKv1.2 channel = hKv1.2 channel (human, UniProt P16389); assay: as above
mKv1.1 channel = mKv1.1 channel (Mus musculus (Mouse), UniProt P16388); assay: as above
hKv1.3 channel [6] = biological target: T3, hKv1.3 channel; assay: patch clamp on human lymphocytes (summary of the result)
[7] = biological target: mKv1.1 channel (Mus musculus (Mouse)) (UniProt P16388)
Chain of mKv1.1 channel (Mus musculus (Mouse)) (P16388 whole entry): as the sequence (P16388 whole entry) above

hKv1.3 channels [8] = biological target: T2, hKv1.3 channels
hKv1.2 [9] = biological target: T1, hKv1.2
hKv1.3 channel [10] = biological target: T3, hKv1.3 channel; assay: whole-cell patch clamp; recovery of hKv1.3 current on wash-out after 3 pM Vm24
hKv1.3 channels [11] = biological target: T2, hKv1.3 channels; remark: listed apart in the source

O=c1ccc2c(OCCCCOc3ccccc3)c3ccoc3cc2o1 [PAP-1]
reduction of the fraction of rats showing symptoms of EAD (DP-BB/W rats): ~50%

HsTx1: toxin of the scorpion Heterometrus spinnifer, SEQ ID NO: 6
activity of amidated form relative to free-carboxyl-terminal form (rat brain synaptosomes): up to 300 fold
potency of amidated form relative to free-carboxyl-terminal form [1]: 5 fold

Vm23: 35 amino acid peptide from V. mexicanus venom, SEQ ID NO:1, four disulfide bridges, 83% identical to Vm24 (AAAISCVGSKECLPKCKAQGCKSGKCMNKKCKCYC; not fully specified (bridges); also: four disulfide bridges (pairing not given here))
block of mKv1.1 (mKv1.1): practically does not block
current inhibition mKv1.1 (mKv1.1): ~3%
block of hIKCa1 (hIKCa1): practically does not block
current inhibition hIKCa1 (hIKCa1): ~1%
current inhibition hKv1.2 (hKv1.2 [2]; 10 nM): ~9%
time for equilibrium block of hKv1.2 to develop (hKv1.2 [2]; 10 nM): 3.5 min
remaining current fraction (RCF) hKv1.2 (hKv1.2 [2]; 10 nM, n=3): 0.91±0.02
reversibility of hKv1.2 block (hKv1.2 [2]; after 10 nM, wash-out): not readily reversible within 2 min
toxicity in experimental animals (mice): not toxic
blockage of hKv1.3 current (hKv1.3 channels [3]; 10 nM): approximately 95%
time for equilibrium block of hKv1.3 to develop (hKv1.3 channels [3]; 10 nM): 3.5 min
block of hKv1.3 current (words) (hKv1.3 channels [3]; 10 nM, within 3.5 min): almost completely disappeared
relief of hKv1.3 block on wash-out (hKv1.3 channels [3]; after 10 nM, within 2 minutes): did not result in a significant relief

sVm24: chemically synthesized, correctly folded Vm24; primary sequence identical to the natural peptide (AAAISCVGSPECPPKCRAQGCKNGKCMNRKCKCYYC-NH2; not fully specified (bridges); also: disulfide pairing as native peptide (not given here))
block of hKv1.3 current (hKv1.3 channels [3]; 100 pM): > 90%
block of hKv1.3 current (words) (hKv1.3 channels [3]; 100 pM): almost completely disappeared
potency in blocking hKv1.3 compared with natural toxin (hKv1.3 channels [3]; RCF at 100 pM, t-test p=0.57): as potent as the natural toxin

B1: Vm24 (peptide)
peptide: AAAISCVGSPECPPKCRAQGCKNGKCMNRKCKCYYC-NH2
modifications: disulfide 12-31, 16-33, 21-36, 6-26; N-terminus assumed
SMILES: CC[C@H](C)[C@H](NC(=O)[C@H](C)NC(=O)[C@H](C)NC(=O)[C@H](C)N)C(=O)N[C@@H](CO)C(=O)N[C@H]1CSSC[C@@H]2NC(=O)[C@H](CCCCN)NC(=O)CNC(=O)[C@H](CC(N)=O)NC(=O)[C@H](CCCCN)NC(=O)[C@@H]3CSSC[C@@H](C(N)=O)NC(=O)[C@H](Cc4ccc(O)cc4)NC(=O)[C@H](Cc4ccc(O)cc4)NC(=O)[C@@H]4CSSC[C@H](NC(=O)[C@H](CCCCN)NC(=O)[C@@H]5CCCN5C(=O)[C@@H]5CCCN5C(=O)[C@H](CSSC[C@H](NC(=O)[C@H](CCCCN)NC(=O)[C@H](CCCNC(=N)N)NC(=O)[C@H](CC(N)=O)NC(=O)[C@H](CCSC)NC2=O)C(=O)N[C@@H](CCCCN)C(=O)N4)NC(=O)[C@H](CCC(=O)O)NC(=O)[C@@H]2CCCN2C(=O)[C@H](CO)NC(=O)CNC(=O)[C@H](C(C)C)NC1=O)C(=O)N[C@@H](CCCNC(=N)N)C(=O)N[C@@H](C)C(=O)N[C@@H](CCC(N)=O)C(=O)NCC(=O)N3
Kd (hKv1.3 channel [4]): 2.9 pM
selectivity for hKv1.3 over hIKCa1 [5]: > 4500 fold
selectivity for hKv1.3 over hKv1.2 (hKv1.2 channel): ≥ 1500 fold
selectivity for hKv1.3 over mKv1.1 (mKv1.1 channel): ≥ 10000 fold
Kd (hKv1.3 channel [6]): < 3 pM
remaining current fraction (RCF) at 10 nM Vm24 [7]: 0.8 RCF
remaining current fraction (RCF) of whole-cell hKv1.3 current at 10 nM Vm24 (hKv1.3 channels [8]): 0.01 RCF
remaining current fraction (RCF) at 10 nM Vm24 (hKv1.2 [9]): 0.54 RCF
koff (hKv1.3 channel [10]): ~0.00026 s⁻¹

B2: Vm23 (peptide)
peptide: AAAISCVGSKECLPKCKAQGCKSGKCMNKKCKCYC-OH
modifications: disulfide (positions not given here); also: four disulfide bridges, pairing not given here (assumed as in Vm24)
blockage of the current at 10 nM Vm23 (hKv1.3 channels [11]): 95%
